Two molecules from US20260263521A1, “ANTI-CD200R1 ANTIBODY AND USE THEREOF” (AIMED BIO INC., priority 2023, published 2026) can be followed below.

One test addresses T1, human CD200R1 (Homo sapiens, UniProt Q8TD46).
T1 sequence (Q8TD46 25-348): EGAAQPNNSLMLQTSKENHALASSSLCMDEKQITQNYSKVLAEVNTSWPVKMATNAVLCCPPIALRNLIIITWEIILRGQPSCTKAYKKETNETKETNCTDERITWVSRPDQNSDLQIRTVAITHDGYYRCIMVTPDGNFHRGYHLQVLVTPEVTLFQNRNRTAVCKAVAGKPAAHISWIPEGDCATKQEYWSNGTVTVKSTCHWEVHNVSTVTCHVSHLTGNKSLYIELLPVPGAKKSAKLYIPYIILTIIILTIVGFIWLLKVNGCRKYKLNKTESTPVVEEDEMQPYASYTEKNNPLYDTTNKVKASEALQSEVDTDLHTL
Kind of test: SPR binding kinetics, human CD200R1. The settings on record: hCD200R1-his captured on anti-His CM5 chip, 1:1 Langmuir fit. On the procedure: (§1) The CD200R1-specific binding ability of the antibodies (P001009 wt, P001009 v1, P001009 v2, P001009 v3, P001009 v4) selected in Example 14 was analyzed using surface plasma resonance (SPR). For the experiment, 30 μg/mL of an anti-histidine antibody was conjugated to a CM5 biacore chip via an amine bond while allowing to flow at 10 μl/min (10,000 RU). Then, 0.25 μg/mL of human or cynomolgus CD200R1 with dual His-tags was captured onto the completed chip for 60 seconds, and the binding ability of each antibody was analyzed. All experiments were performed by association of antibodies for 120 seconds and dissociation of antibodies for 600 seconds. The resulting graphs were fitted using a 1:1 Langmuir binding kinetic model (FIG. 16), and the kinetics of each antibody were calculated.

The test system of test [1] is Dok2 phosphorylation in Jurkat-CD200R1 cells. Put plainly: Dok2 protein phosphorylation, Jurkat-CD200R1 reporter cells (PathHunter). It is filed as cell-based, human. The settings on record: for RLU: Jurkat-CD200R1 reporter cells, Fc capture antibody. On the procedure: Jurkat-CD200R1 cells were maintained as shown in Example 17 and were then seeded in triplicate onto CulturePlate-384, a White Opaque 384-well microplate (PerkinElmer, #6007688) at a density of 8,000 cells/well (32 μl). AssayComplete Cell Plating 0 Reagent (DiscoverX, #93-0563ROA) was used for cell plating and antibody dilution. The seeded cells were incubated at 37° C. and 5% CO2 for 30 minutes.
During the reaction, an Fc capture antibody, anti-human IgG (Fc-specific) antibody produced in goat (Sigma Aldrich, #12136, 2.3 mg/ml), was diluted in AssayComplete media and incubated at 37° C., 5% CO2 for 30 minutes. After incubation of both the plate containing the cells and the Fc capture antibody, the cells were treated with the Fc capture antibody at a concentration of 50 μg/ml per well. The reaction was incubated for 3 hours at 37° C., 5% CO2. After cross-reactivity with the Fc capture antibody, the cells were treated with a total of three antibodies, as shown in Example 17. The cells were diluted two-fold from a maximum concentration of 50 nM to 25 nM, 12.5 nM, 6.25 nM, 3.12 nM, 1.56 nM, 0.78 nM, 0.39 nM, 0.20 nM, 0.098 nM, and 0.049 nM. After treatment, the result was reacted at room temperature for an additional 2 hours.
The PathHunter Detection kit (DiscoverX, #93-0001) was used to confirm the response of the treated antibodies to the Jurkat-CD200R1 reporter cell line. Final data were analyzed using an Infinite M200 Pro Plate reader (Tecan) to measure the luminescence from phosphorylated Dok2. […] luminescence unit (RLU) is an arbitrary unit representing luminescence, calculated by converting the signal detected by a cross-linked Fc capture antibody.

The subject of a further test is cynomolgus CD200R1. Kind of test: SPR binding kinetics, cynomolgus CD200R1. The settings on record: cynomolgus CD200R1-his captured on anti-His CM5 chip, 1:1 Langmuir fit. On the procedure:
as §1
In general terms: SPR reads the build-up and loss of mass on a sensor chip optically.

Test [2] deals with TNF-α in U937-CD200R1 cells. Kind of test: TNF-α suppression in LPS-treated U937-CD200R1 cells (AlphaLISA). It is filed as cell-based, human. The settings on record: for TNF-α: LPS-treated U937-CD200R1 cells, 24 h. Here is the method:
To determine the binding ability of the candidates to U937-CD200R1-overexpressing cell lines and verify the efficacy thereof, the anti-inflammatory effect of anti-CD200R1 antibodies was analyzed. First, 5×10^6 U937-CD200R1 cells were added to 12 ml of medium, treated with 30 ng/ml of Phorbol 12-myristate 13-acetate (Sigma Aldrich, #P1585), and reacted at 37° C. in 5% CO2 for 24 hours. After reaction, the medium was replaced with RPMI 1640 medium containing only 10% heat-inactivated FBS, and 5×10^6 cells were maintained at 37° C. in 5% CO2 for 24 hours.
Cells were seeded on duplicate onto 96-well round-bottom plates (SPL, #34296) at 1×10^5 cells/50 μl/well. P001009 WT, P001009v1, and the previously published CD200R antibody LY3454738 (US 2020/0087395, I-4P, Eli Lilly) as a positive control were used in this experiment. The drug was serially diluted 10-fold from a maximum concentration of 100 nM and treated to the cells at concentrations of 10 nM, 1 nM, […], respectively. Additional cells were treated with 100 nM of hIgG4 kappa isotype control (Crownvivo, #C0004) as a negative control. Untreated cells were seeded in the same amount of medium (RPMI 1640 containing 10% heat-inactivated FBS) and incubated at 37° C., 5% CO2 for 1 hour. To induce an inflammatory response in drug-treated cells, each well was treated with 10 μl of lipopolysaccharide from Salmonella typhosa (Sigma Aldrich, #L7895) at a concentration of 1 μg/ml. One well was left untreated to assess the induction of inflammatory cytokines. After thorough mixing, the cells were incubated at 37° C. and 5% CO2 for 24 hours.
After centrifugation at 1100 g for 2 minutes, images of the pellets before and after LPS treatment were captured using a microscope (Carl Zeiss, AXIO VERT.A1). After LPS treatment, the pellet appeared as scattered debris (FIG. 18B) rather than uniform spheroids (FIG. 18A). This was observed under a microscope. The supernatant was collected and analyzed for inflammatory cytokines such as TNF-α and IL-6 using an EnVision® multimode plate reader (PerkinElmer). A bead-based cytokine assay was performed using the AlphaLISA immunoassay on the EnVision® instrument. TNF-α(human) AlphaLISA Detection Kit, 500 assay points (PerkinElmer, #AL208C) was used for TNF-α, and the IL-6 (human) AlphaLISA Detection Kit, 500 assay points (PerkinElmer, #AL223C) was used for IL-6. Cytokine levels were determined depending on the concentration of each antibody.
In general terms: Alpha assays give light when donor and acceptor beads are brought close together.

Where a chain is given by its changes, count along the chain named.

B1: P001009: phage display anti-CD200R1 clone; VH SEQ ID NO: 79, VL SEQ ID NO: 94 (antibody, V domains shown)
VH: EVQLLESGGGLVQPGGSLRLSCAASGFTFSSYDMSWVRQAPGKGLEWVSWISHGGGSIYYADSVKGRFTISRDNSKNTLYLQMNSLRAEDTAVYYCARDAPAYSAPLFDYWGQGTLVTVSS
VL: QSVLTQPPSASGTPGQRVTISCSGSSSNIGNNAVNWYQQLPGTAPKLLIYYDSNRPSGVPDRFSGSKSGTSASLAISGLRSEDEADYYCAAWDDSLSGYVFGGGTKLTVL
Take B1: the Ka with human CD200R1 came out at 2.81e+06 M⁻¹ s⁻¹; with cynomolgus CD200R1, 5.63e+06 M⁻¹ s⁻¹. Also, the “luminescence due to phosphoDok2” value in test [1] was “exhibited luminescence due to phosphoDok2”. The RLU in test [1] (antibody dose 0.05 nM) turned out to be 10432 ± 2166 a.u; in test [1] (antibody dose 0.10 nM) it was 10359 ± 1227 a.u; in test [1] (antibody dose 0.20 nM), 15184 ± 2826 a.u; in test [1] (antibody dose 0.39 nM) it was 10861 ± 917 a.u; in test [1] (antibody dose 0.78 nM) it was 25264 ± 1484 a.u; in test [1] (antibody dose 1.56 nM) it was 33140 ± 5780 a.u. Also, the RLU is recorded as 41203 ± 4810 a.u in test [1] (antibody dose 3.13 nM); 56115 ± 6866 a.u in test [1] (antibody dose 6.25 nM); 57733 ± 6385 a.u in test [1] (antibody dose 12.5 nM); 50858 ± 8029 a.u in test [1] (antibody dose 25 nM); 37120 ± 14299 a.u in test [1] (antibody dose 50 nM). The TNF-α in test [2] (log [Ab] (M) −7) amounted to 619.6 ± 12.3 pg/mL; in test [2] (log [Ab] (M) −8), 1259.1 ± 29.9 pg/mL; in test [2] (log [Ab] (M) −9) it was 2035.8 ± 108.9 pg/mL; in test [2] (log [Ab] (M) −10) it was 4148.8 ± 208.7 pg/mL; in test [2] (log [Ab] (M) −11), 5038.4 ± 7.7 pg/mL; in test [2] (log [Ab] (M) −12), 5128.6 ± 667.6 pg/mL.

B2: P001009v1: P001009 variant, LC S52 and LC S94 substituted with K and R; VH SEQ ID NO: 79 (antibody, V domains shown)
VH: B1 VH
VL: B1 VL with S53K, S95R
As for B2, the Ka with human CD200R1 was 4.77e+06 M⁻¹ s⁻¹; in the test on cynomolgus CD200R1, 5.23e+06 M⁻¹ s⁻¹. Besides, in test [1], the “luminescence due to phosphoDok2” value is recorded as “exhibited luminescence due to phosphoDok2”. For the same molecule, the RLU amounted to 9521 ± 1128 a.u in test [1] (antibody dose 0.05 nM); 10677 ± 2258 a.u in test [1] (antibody dose 0.10 nM); 17866 ± 1925 a.u in test [1] (antibody dose 0.20 nM); 11340 ± 509 a.u in test [1] (antibody dose 0.39 nM); 28644 ± 4755 a.u in test [1] (antibody dose 0.78 nM); 32863 ± 4207 a.u in test [1] (antibody dose 1.56 nM). Moreover, the RLU stood at 29729 ± 3825 a.u in test [1] (antibody dose 3.13 nM); 48879 ± 1315 a.u in test [1] (antibody dose 6.25 nM); 45830 ± 6990 a.u in test [1] (antibody dose 12.5 nM); 53185 ± 13281 a.u in test [1] (antibody dose 25 nM); 32676 ± 5379 a.u in test [1] (antibody dose 50 nM). Also, the TNF-α in test [2] (log [Ab] (M) −7) was 146.7 ± 23.8 pg/mL; in test [2] (log [Ab] (M) −8), 609.5 ± 25.6 pg/mL; in test [2] (log [Ab] (M) −9) it was 1039.8 ± 54.7 pg/mL; in test [2] (log [Ab] (M) −10), 3352.5 ± 189.8 pg/mL; in test [2] (log [Ab] (M) −11) it was 4753.2 ± 96.1 pg/mL; in test [2] (log [Ab] (M) −12) it was 4082.1 ± 964.6 pg/mL. Also, the “TNF-α level” value in test [2] (low nanomolar (nM) drug concentrations) is on record as “maintained low inflammatory cytokine levels”.
